Test results reported in publication PMC12313861.

Biological target: ComFB signaling protein (Slr1970) (Synechocystis)
Assay: SEC-MALS; size exclusion chromatography coupled to multiangle light scattering of ComFB; species of 40.5 kDa against theoretical monomer mass 20.4 kDa

- stoichiometry N: 2
Substance: ComFB signaling protein (Slr1970) (natural protein)
